The results in this text go back to article PMC5302886, “Structure and function of the mycobacterial transcription initiation complex with the essential regulator RbpA” (eLife, 2017).

The experiment addresses T1, M. smegmatis RNA polymerase β’ subunit (M. smegmatis, UniProt A0QS66 1-1317).
T1 construct: RNA polymerase β’ subunit of Mycobacterium smegmatis mc2155, native chromosomal copy of rpoC with a C-terminal PreScission site and His10 tag; In the crystal β’ stood as part of the whole σ^A-holoenzyme, not as an isolated subunit; also called RNAP β’-ppx-His10; rpoC product
Briefly: crystal structure; Msm RbpA/σ^A-holo mixed 1:1 with T10 upstream fork promoter DNA (RbpA/TIC, 446 kDa); hanging drop vapor diffusion at 22°C, 0.1 M Bis-Tris pH 6.0, 0.2 M LiSO4, 16% PEG 3350, 2.5% ethylene glycol; 2.76 Å. To be noted: both partners purified.

B1: M. smegmatis σ^A (natural protein)
chain: MAATKASPATEEPVKRTATKTPAKKAPAKRAAKSAAAKAGGKAPAKKAPAKRAAKGTAAKPEDGVTDDLEVTDDLEAEPGEDLDVEDTDLELDDLDSDDDTAVEDEEEEADAATPAVATAKAADDDIDEPSEKDKASGDFVWDEEESEALRQARKDAELTASADSVRAYLKQIGKVALLNAEEEVELAKRIEAGLYATQKLAELAEKGEKLPVQQRRDMQWICRDGDRAKNHLLEANLRLVVSLAKRYTGRGMAFLDLIQEGNLGLIRAVEKFDYTKGYKFSTYATWWIRQAITRAMADQARTIRIPVHMVEVINKLGRIQRELLQDLGREPTPEELAKEMDITPEKVLEIQQYAREPISLDQTIGDEGDSQLGDFIEDSEAVVAVDAVSFTLLQDQLQSVLETLSEREAGVVRLRFGLTDGQPRTLDEIGQVYGVTRERIRQIESKTMSKLRHPSRSQVLRDYLD
notes: primary (group 1) sigma factor σ^A of Mycobacterium smegmatis; domains σ^A2, σ^A3, σ^A4 named in the text; Plasmid Msm pET-SUMO σ^A received from C; Stallings; also called Msm σ^A; SigA
For the molecule B1, the binding result is on record as “binds”.

B2: M. smegmatis RbpA (natural protein)
chain: MADRVLRGSRLGAVSYETDRNHDLAPRQVARYRTDNGEEFDVPFADDAEIPGTWLCRNGLEGTLIEGDVPEPKKVKPPRTHWDMLLERRSVEELEELLKERLDLIKAKRRGTGS
notes: RbpA of Mycobacterium smegmatis mc2155 (MSmeg_3858), cloned from genomic DNA into pet21C; elements NTT (25 residues, disordered in the crystal), CD, BL (residues 70-79), SID; 114 residues by the printed truncations (28-114aa, 72-114aa); the complex was held on the Ni2+ column by the His10-SUMO tag of σ^A and came in the flow-through after that tag was cleaved; The NTT was in the crystallised …
B2: the binding result was “binds”.
